Data reported in US20260167693A1 (ANGELES THERAPEUTICS, published 2026).
Values belong to the binder of their own block, whether it stands above or below them.

Experiments:
CD19-ECD-GGSG-NLuc-AcV5 [1] = target: T1, CD19-ECD-GGSG-NLuc-AcV5 (human); assay: NLuc binding assay, SIR on Jurkat-NFAT-Luc cells
T1 construct: also called CD19-GGSG-NLuc-AcV5; Flag-CD19-GGSG-NLuc-AcV5
T1 chain: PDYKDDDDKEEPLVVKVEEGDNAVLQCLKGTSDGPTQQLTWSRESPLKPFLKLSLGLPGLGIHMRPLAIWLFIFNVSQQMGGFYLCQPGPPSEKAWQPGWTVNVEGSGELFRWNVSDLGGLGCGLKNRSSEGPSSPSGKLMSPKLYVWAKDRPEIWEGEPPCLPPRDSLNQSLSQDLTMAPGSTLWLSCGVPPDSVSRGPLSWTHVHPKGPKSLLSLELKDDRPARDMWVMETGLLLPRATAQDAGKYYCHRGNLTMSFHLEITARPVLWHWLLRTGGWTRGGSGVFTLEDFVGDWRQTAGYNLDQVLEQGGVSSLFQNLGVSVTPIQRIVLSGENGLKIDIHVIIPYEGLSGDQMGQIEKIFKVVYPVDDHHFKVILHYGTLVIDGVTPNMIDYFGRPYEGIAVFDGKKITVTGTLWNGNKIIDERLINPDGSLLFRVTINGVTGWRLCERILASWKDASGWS

CD19-ECD-GGSG-NLuc-AcV5 [2] = target: T1, CD19-ECD-GGSG-NLuc-AcV5; assay: NLuc binding assay, SIR on Jurkat-NFAT-GFP cells
CD19-ECD-GGSG-NLuc-AcV5 [3] = target: T1, CD19-ECD-GGSG-NLuc-AcV5; assay: NLuc binding assay, single chain unit in Jurkat-NFAT-GFP cells
human CD19 = target: T2, human CD19 (human, UniProt P15391 20-556); assay: cell-based or functional assay
T2 sequence (looked up): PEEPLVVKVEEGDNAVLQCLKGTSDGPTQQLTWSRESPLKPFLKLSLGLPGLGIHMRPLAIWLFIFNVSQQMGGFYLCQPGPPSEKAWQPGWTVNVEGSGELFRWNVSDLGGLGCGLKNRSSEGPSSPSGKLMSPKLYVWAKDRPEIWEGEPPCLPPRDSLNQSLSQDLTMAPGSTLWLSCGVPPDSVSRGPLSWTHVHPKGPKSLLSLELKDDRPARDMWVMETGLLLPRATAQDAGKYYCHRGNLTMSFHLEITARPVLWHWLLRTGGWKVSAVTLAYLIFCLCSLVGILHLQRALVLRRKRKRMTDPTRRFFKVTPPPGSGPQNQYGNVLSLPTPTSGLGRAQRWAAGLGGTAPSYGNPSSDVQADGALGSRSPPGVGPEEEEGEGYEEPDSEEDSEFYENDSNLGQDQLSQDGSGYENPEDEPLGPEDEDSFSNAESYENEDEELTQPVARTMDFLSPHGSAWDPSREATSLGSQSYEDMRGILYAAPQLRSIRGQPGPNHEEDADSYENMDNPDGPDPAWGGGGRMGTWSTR

- binding result (CD19-ECD-GGSG-NLuc-AcV5 [1]): no binding
- CD19-GGSG-NLuc (RLU) (CD19-ECD-GGSG-NLuc-AcV5 [2]): 768 RLU
B1: CD8SP-FMC63-vL-V5-[hTCRb-WT]-F-P2A-SP-FMC63-vH-Myc-[hTCRa-WT]-F-F2A-PAC (080815-F02)[SEQ ID NO:922] (other)
TCR beta: DIQMTQTTSSLSASLGDRVTISCRASQDISKYLNWYQQKPDGTVKLLIYHTSRLHSGVPSRFSGSGSGTDYSLTISNLEQEDIATYFCQQGNTLPYTFGGGTKLEITGKPIPNPLLGLDSTGSGEDLKNVFPPEVAVFEPSEAEISHTQKATLVCLATGFYPDHVELSWWVNGKEVHSGVSTDPQPLKEQPALNDSRYCLSSRLRVSATFWQNPRNHFRCQVQFYGLSENDEWTQDRAKPVTQIVSAEAWGRADCGFTSESYQQGVLSATILYEILLGKATLYAVLVSALVLMAMVKRKDSRG
TCR alpha: EVKLQESGPGLVAPSQSLSVTCTVSGVSLPDYGVSWIRQPPRKGLEWLGVIWGSETTYYNSALKSRLTIIKDNSKSQVFLKMNSLQTDDTAIYYCAKHYYYGGSYAMDYWGQGTSVTVSSEQKLISEEDGSGIQNPDPAVYQLRDSKSSDKSVCLFTDFDSQTNVSQSKDSDVYITDKTVLDMRSMDFKSNSAVAWSNKSDFACANAFNNSIIPEDTFFPSPESSCDVKLVEKSFETDTNLNFQNLSVIGFRILLLKVAGFNLLMTLRLWSS
notes: SIR with wild-type TCR constant chains; Polyprotein PRT 3157

- binding result (CD19-ECD-GGSG-NLuc-AcV5 [3]): no binding
B2: CD8SP-FMC63-vL-V5-[hTCRb-KACIAH]-F-P2A-PAC (other)
TCR beta: DIQMTQTTSSLSASLGDRVTISCRASQDISKYLNWYQQKPDGTVKLLIYHTSRLHSGVPSRFSGSGSGTDYSLTISNLEQEDIATYFCQQGNTLPYTFGGGTKLEITGKPIPNPLLGLDSTGSGEDLKNVFPPEVAVFEPSKAEIAHTQKATLVCLATGFYPDHVELSWWVNGKEVHSGVCTDPQPLKEQPALNDSRYCLSSRLRVSATFWQNPRNHFRCQVQFYGLSENDEWTQDRAKPVTQIVSAEAWGRADCGITSASYHQGVLSATILYEILLGKATLYAVLVSALVLMAMVKRKDSRG
notes: One functional polypeptide unit alone in Jurkat-NFAT-GFP cells; PRT 3148; also called 050216-S08

- binding result (CD19-ECD-GGSG-NLuc-AcV5 [3]): no binding
B3: CD8SP-FMC63-vH-MYC-[TCRα-CSDVP]-F-F2A-BlastR (other)
TCR alpha: EVKLQESGPGLVAPSQSLSVTCTVSGVSLPDYGVSWIRQPPRKGLEWLGVIWGSETTYYNSALKSRLTIIKDNSKSQVFLKMNSLQTDDTAIYYCAKHYYYGGSYAMDYWGQGTSVTVSSEQKLISEEDGSGIQNPDPAVYQLRDSKSSDKSVCLFTDFDSQTNVSQSKDSDVYITDKCVLDMRSMDFKSNSAVAWSNKSDFACANAFNNSIIPEDTFFPSSDVPCDVKLVEKSFETDTNLNFQNLSVIGFRILLLKVAGFNLLMTLRLWSS
notes: One functional polypeptide unit alone in Jurkat-NFAT-GFP cells; PRT 3232; also called 041916-A02

The remaining lines, values behind:

B4: CD8SP-hu-FMC65-1-vL-[hTCRb-S17C]-F-P2A-SP-hu-FMC65-1-vH-[hTCRa-Y10C] (other)
TCR beta: DVVMTQSPSSLSASVGDRVTITCRASQDISKYLNWYQQKPGKAPKLLIYHTSRLHSGVPSRFSGSGSGTDFTLTISSLQPEDFATYYCQQGNTLPYTFGGGTKVEIKEDLKNVFPPEVAVFEPCEAEISHTQKATLVCLATGFYPDHVELSWWVNGKEVHSGVSTDPQPLKEQPALNDSRYCLSSRLRVSATFWQNPRNHFRCQVQFYGLSENDEWTQDRAKPVTQIVSAEAWGRADCGFTSESYQQGVLSATILYEILLGKATLYAVLVSALVLMAMVKRKDSRG
TCR alpha: QVQLQESGPGLVKPSQTLSLTCTVSGVSLPDYGVSWIRQPPGKGLEWIGVIWGSETTYYNSALKSRVLISVDTSKNQVSLKLSSVTAADTAVYYCARHYYYGGSYAMDYWGQGTTVTVSSIQNPDPAVCQLRDSKSSDKSVCLFTDFDSQTNVSQSKDSDVYITDKTVLDMRSMDFKSNSAVAWSNKSDFACANAFNNSIIPEDTFFPSPESSCDVKLVEKSFETDTNLNFQNLSVIGFRILLLKVAGFNLLMTLRLWSS
- NFAT-GFP (%) after co-culture with RAJI cells (human CD19): 1.99%

B5: CD8SP-hu-FMC65-1-vL-[hTCRb-S77C]-F-P2A-SP-hu-FMC65-1-vH-[hTCRa-T45C] (other)
TCR beta: DVVMTQSPSSLSASVGDRVTITCRASQDISKYLNWYQQKPGKAPKLLIYHTSRLHSGVPSRFSGSGSGTDFTLTISSLQPEDFATYYCQQGNTLPYTFGGGTKVEIKEDLKNVFPPEVAVFEPSEAEISHTQKATLVCLATGFYPDHVELSWWVNGKEVHSGVSTDPQPLKEQPALNDSRYCLCSRLRVSATFWQNPRNHFRCQVQFYGLSENDEWTQDRAKPVTQIVSAEAWGRADCGFTSESYQQGVLSATILYEILLGKATLYAVLVSALVLMAMVKRKDSRG
TCR alpha: QVQLQESGPGLVKPSQTLSLTCTVSGVSLPDYGVSWIRQPPGKGLEWIGVIWGSETTYYNSALKSRVLISVDTSKNQVSLKLSSVTAADTAVYYCARHYYYGGSYAMDYWGQGTTVTVSSIQNPDPAVYQLRDSKSSDKSVCLFTDFDSQTNVSQSKDSDVYICDKTVLDMRSMDFKSNSAVAWSNKSDFACANAFNNSIIPEDTFFPSPESSCDVKLVEKSFETDTNLNFQNLSVIGFRILLLKVAGFNLLMTLRLWSS
- NFAT-GFP (%) after co-culture with RAJI cells (human CD19): 0.9%
